“And” between values parts separate entries of the source, which are not always exact repeats. Identical values can stand only once. Like-named read-outs stand apart in the source and are kept apart here.
T1: human AXL on the surface of tumor cells (human, UniProt P30530 26-894)
T1 construct: whole, on cells; endogenous protein of human tumor cell lines; the cell line is named under assay or readout; also called AXL on the cell surface
T1 sequence (looked up): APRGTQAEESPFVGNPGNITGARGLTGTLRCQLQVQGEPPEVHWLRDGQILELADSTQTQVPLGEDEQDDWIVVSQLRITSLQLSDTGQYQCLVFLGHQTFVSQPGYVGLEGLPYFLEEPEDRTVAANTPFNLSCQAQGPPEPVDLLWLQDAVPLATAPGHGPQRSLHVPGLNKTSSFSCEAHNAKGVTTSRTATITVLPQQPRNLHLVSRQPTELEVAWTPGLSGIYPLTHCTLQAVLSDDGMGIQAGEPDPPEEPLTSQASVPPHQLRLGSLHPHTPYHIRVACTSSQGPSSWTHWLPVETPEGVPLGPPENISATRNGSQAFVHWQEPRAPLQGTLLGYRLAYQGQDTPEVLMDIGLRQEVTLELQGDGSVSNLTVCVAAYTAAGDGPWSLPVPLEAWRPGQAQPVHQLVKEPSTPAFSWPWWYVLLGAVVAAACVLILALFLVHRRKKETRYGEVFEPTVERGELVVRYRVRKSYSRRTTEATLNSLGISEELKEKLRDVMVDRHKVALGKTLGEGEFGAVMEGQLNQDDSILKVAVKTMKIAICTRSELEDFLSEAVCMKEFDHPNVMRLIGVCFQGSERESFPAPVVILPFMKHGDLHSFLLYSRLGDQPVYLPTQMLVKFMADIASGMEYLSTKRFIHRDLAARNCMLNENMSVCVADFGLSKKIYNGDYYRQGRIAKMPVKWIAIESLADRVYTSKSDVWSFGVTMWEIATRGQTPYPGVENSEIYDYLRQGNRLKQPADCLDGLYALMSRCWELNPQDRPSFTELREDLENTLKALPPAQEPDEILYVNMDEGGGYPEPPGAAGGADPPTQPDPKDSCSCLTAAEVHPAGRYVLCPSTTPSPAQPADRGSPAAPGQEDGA

T2: extracellular domain of human AXL protein (AXL-ECD) (human, UniProt P30530 31-449)
T2 construct: expressed in HEK293T cells; coated on the ELISA plate; also called AXL-ECD protein; human AXL extracellular domain protein
T2 sequence: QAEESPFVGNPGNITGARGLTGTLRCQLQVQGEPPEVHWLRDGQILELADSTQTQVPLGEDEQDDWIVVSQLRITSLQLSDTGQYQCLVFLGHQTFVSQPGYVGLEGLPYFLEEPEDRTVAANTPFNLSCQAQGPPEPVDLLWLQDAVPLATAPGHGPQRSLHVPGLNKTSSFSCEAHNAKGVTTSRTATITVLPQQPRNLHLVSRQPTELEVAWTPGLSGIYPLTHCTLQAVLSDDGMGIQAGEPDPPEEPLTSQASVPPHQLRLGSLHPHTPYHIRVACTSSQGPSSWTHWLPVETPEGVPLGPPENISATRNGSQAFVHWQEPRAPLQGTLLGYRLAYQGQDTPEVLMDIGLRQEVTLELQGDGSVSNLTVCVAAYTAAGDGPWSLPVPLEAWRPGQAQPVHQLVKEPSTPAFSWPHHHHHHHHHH

B1: AXL107 (antibody, V domains shown)
VH: EVQLLESGGGLVQPGGSLRLSCAASGFTFSSYAMNWVRQAPGKGLEWVSTTSGSGASTYYADSVKGRFTISRDNSKNTLYLQMNSLRAEDTAVYYCAKIWIAFDIWGQGTMVTV
VL: not shown
notes: also called control antibody AXL107; AXL07
B2: mAb001 (antibody, V domains shown)
VH: AVQLQESGPSLVKPSQTLSLTCSVTGDSITSGYWSWIRKFPGNKLESMGYMTYSGATYYNPSLKSRISITRDTSKNQYYLQLNSVTPEDTATYYCARGGNSYFFDYWGQGTTLTVSS
VL: DIQMTQSPASLSVSVGETVTITCRASENIYSNLAWYQLKQGKSPHLLVYAATNLADGVPSRFSGSGSGTQYSLKIISLQSEDFGTYYCQHFWGTPLTFGAGTKLELK
notes: murine hybridoma antibody, IgG1/k; also called original murine antibody mAb001
B3: mAb001c (antibody, V domains shown)
VH: B2 VH
VL: B2 VL
notes: also called human-mouse chimeric antibody mAb001c
B4: mAb002c (antibody, V domains shown)
VH: QIQLQQSGPELVKPGASVKISCKASGYPFTDFYINWVKQKPGQGLEWIGWIYPGSGNTKYNEKFKGKATLTVDTSSSTAYMQLSSLTSEDTAVYFCARSTGFFDYWGQGTTLTVSS
VL: QIVLTQSPALMSASPGEKVTMTCSASSSIGYMYWYQQKPRSSPKSWIYLTSNLASGVPARFSGSGSGTSYSLTISSMEAEDAATYYCQQWSSNPPTFGAGTKLELK
notes: also called human-mouse chimeric antibody mAb002c
B5: mAb002 (antibody, V domains shown)
VH: B4 VH
VL: B4 VL
notes: murine hybridoma antibody, IgG1/k; also called original murine antibody mAb002
B6: Hu002-2 (antibody, V domains shown)
VH: QVQLVQSGAEVKKPGASVKVSCKASGYPFTDFYINWVRQAPGQGLEWMGWIYPGSGNTKYNEKFKGRVTLTVDTSISTAYMELSRLRSDDTAVYYCARSTGFFDYWGQGTLVTVSS
VL: EIVLTQSPATLSLSPGERATLSCSASSSIGYMYWYQQKPGQAPRLLIYLTSNLASGIPARFSGSGSGTDFTLTISSLEPEDFAVYYCQQWSSNPPTFGQGTKLEIK
notes: humanized from mAb002c; also called Hu002c-2
B7: mAb005 (antibody, V domains shown)
VH: QVQLQQSGPELVKPGASVKISCKASGYSFTSYYIHWVQQRPGQGLEWIGWIYPGSDNTKYNEKFKDKATLTADTSSGTAYMQLSSLTSDDSAVFYCARNYYDYDGGTWFPYWGQGTLVTVSA
VL: DIQMTQTTSSLSASLGDRVTISCRASQDINYYLNWYQQKPDGTVKLLIYYTSRLHSRVPSRFSGSGSGTDYSLTISNLEQEDIATYFCQQGNTLPWTFGGGTKLEIK
notes: murine hybridoma antibody, IgG1/k; also called original murine antibody mAb005
B8: mAb005c (antibody, V domains shown)
VH: B7 VH
VL: B7 VL
notes: also called human-mouse chimeric antibody mAb005c

Assays:
[1] = target: T1, human AXL on the surface of tumor cells; experiment: FACS on MDA-MB-231 cells, mean EC50
Method: (§1) Then the obtained solutions were incubated at 4° C. for 1 h, the cells were washed twice with PBS to remove unbound primary antibody, and then the target cells were incubated with 200 μL PE-labeled secondary antibody (2 μg/mL) at 4° C. for 30 min. The cells were washed twice with PBS to remove unbound secondary antibody. Finally, the cells were resuspended in 200 μL PBS, and the binding affinity of the test antibody to AXL on the cell surface was determined by a flow cytometer (FACSCalibur)

[2] = target: T2, extracellular domain of human AXL …; experiment: ELISA, plate-coated AXL-ECD
Method: (§2) The extracellular domain of AXL protein (AXL-ECD) was diluted to […] with the coating solution, and coated onto ELISA plate with 100 μL/well at 4° C. overnight. The excess antigen was washed off. The plate was blocked with 1% BSA at room temperature for 2 h, then each monoclonal antibody in a 3-fold dilution was added at 100 µL/well. The plate was incubated at room temperature for 1 h; the unbound antibody was washed off, and appropriate concentration of anti-mouse secondary antibody labeled with horseradish peroxidase was added at 100 µL/well. The plate was incubated at room temperature for 0.5 h. The unbound secondary antibody was washed off. TMB Substrate was added and reacted for about 15 minutes. 1N HCL was added at 50 µL/well to stop the color reaction. Then the absorbance was measured at 450 nm and the obtained data was analyzed.

[3] = target: T1, human AXL on the surface of tumor cells; experiment: FACS on LCLC-103H cells
Method: as §1
The experimental method was referred to Example 8.

[4] = target: T1, human AXL on the surface of tumor cells; experiment: FACS on MDA-MB-231 cells
Method: as §1

[5] = target: T1, human AXL on the surface of tumor cells; experiment: FACS on NCI-H1299 cells
Method: as §1
AXL-high-expression lung cancer cells NCI-H1299 were used as target cells. 100 μL of the test antibody diluted in a 3-fold gradient was used as primary antibody, and mixed with 1×10⁵ NCI-H1299 cells suspended in 100 μL RPMI-1640 serum-free medium. The operation method was the same as above. Finally, the cells were resuspended in 200 μL PBS, and the binding affinity of the tested antibody to AXL on the cell surface was determined by a flow cytometer (FACSAria II).

[6] = target: T2, extracellular domain of human AXL …; experiment: ELISA, AXL-ECD
[7] = target: T2, extracellular domain of human AXL …; experiment: ELISA, plate-coated AXL-ECD; remark: listed apart in the source
Method: as §2
24 humanized antibodies in Table-6 were diluted by gradient, and their affinity to AXL-ECD protein was determined by ELISA. The experimental method was referred to Example 4.

[8] = target: T1, human AXL on the surface of tumor cells; experiment: FACS on MDA-MB-231 cells; remark: listed apart in the source
Method: as §1
24 humanized antibodies in Table-6 were diluted by gradient, and their affinities to AXL, on the surface of MDA-MB-231 cells were determined by flow cytometer. The experimental method was referred to Example 8.

[9] = target: T1, human AXL on the surface of tumor cells; experiment: FACS, 5 ug/mL antibody, NCI-H1299 cells compared with AXL-low MDA-MB-453 cells
Method: (§3) 3×10⁵ tumor cells were mixed well with the antibody (final concentration was 5 μg/mL), and then incubated at 4° C. for 1 hour. The cells were washed twice with PBS to remove unbound primary antibody. Then 200 μL ([…]) PE-labeled secondary antibody was added and incubated at 4° C. for 30 min. The cells were washed twice with PBS to remove unbound secondary antibodies. Finally, the cells were resuspended in 200 μL PBS. The Binding affinity of the tested antibody to AXL on the cell surface or the overall binding fluorescence intensity (MFI) of different tumor cells at the same antibody concentration was determined with a flow cytometer (FACSCalibur).
(§4) The chimeric antibody mAb002c could specifically recognize and bind tumor cells with AXL high expression.

[10] = target: T1, human AXL on the surface of tumor cells; experiment: FACS, 5 ug/mL antibody, LCLC-103H cells compared with AXL-low MDA-MB-453 cells
Method: as §3, §4

[11] = target: T3, cynomolgus monkey AXL on the surface of HEK-293T cells (cynomolgus monkey); experiment: FACS on HEK293T cells transiently expressing monkey AXL
T3 construct: transiently expressed in HEK293T cells from pcDNA3.1
Method: 3. HEK293T cells were spread to a 50% density in a culture dish, and cultured overnight at 37° C. to a confluence of about 80%. […] of monkey/mouse-AXL vector plasmid prepared above was transiently transfected into the cells with Liposome Lipo2000 (Invitrogen). 24 hours after transfection, the proteins were collected for Western blot analysis, and the cells were collected for FACS to detect the binding activity of Hu002-2 and monkey/mouse AXL on HEK293T cell surface. The FACS detection test method may be referred to Example 18.

Row | Binder | EC50 [1] | EC50 [2] | Highest reading (OD450 nm) [2] | Highest MFI value (FACSCalibur) [4] | EC50 [5] | Highest MFI value (FACSAria II) [5] | EC50 [6] | also measured
1 | B1 | 0.433 nM | 0.075 nM | 3.77 OD450 nm | 218 MFI | 0.655 nM | 2010 MFI |  | EC50 [3]: 0.8 nM
2 | B2 |  |  |  |  |  |  | 0.073 nM | 
3 | B3 | 0.84 nM | 0.092 nM | 3.8 OD450 nm | 217 MFI | 1.49 nM | 2370 MFI |  | 
4 | B4 | 0.174 nM | 0.073 nM | 3.79 OD450 nm | 242 MFI | 0.456 nM | 2260 MFI |  | EC50 [7]: 0.082 nM and 0.076 nM; EC50 [8]: 0.16 nM and 0.169 nM; fold difference of binding rate (MFI) against MDA-MB-453 cells [9]: 127 times; fold difference of binding rate (MFI) against MDA-MB-453 cells [10]: 91 times
5 | B5 |  |  |  |  |  |  | 0.063 nM | 
6 | B6 |  |  |  |  |  |  |  | EC50 [7]: 0.055 nM; TOP (OD450) [7]: 3.6 OD450; EC50 [3]: 0.37 nM; EC50 [8]: 0.112 nM; Highest MFI value (FACSCalibur) [8]: 278 MFI; EC50 [11]: 0.135 nM
7 | B7 |  |  |  |  |  |  | 0.092 nM | 
8 | B8 | 0.4 nM | 0.103 nM | 3.78 OD450 nm | 208 MFI | 0.908 nM | 2140 MFI |  | 
